Results as given in patent US20180305431A1 (Novo Nordisk, published 2018).

What was measured:
[1] = target: insulin receptor on primary rat adipocytes (rat) (UniProt P15127); experiment: cell-based or functional assay
[2] = target: membrane-associated human IR-A (plasma membranes of BHK cells stably transfected with the human IR-A insert) (human) (UniProt P06213); experiment: SPA competition vs [125I-A14Y]-human insulin, membrane hIR-A, 0.1% HSA
[3] = target: membrane-associated human IR-B (plasma membranes of BHK cells stably transfected with the human IR-B insert) (human) (UniProt P06213); experiment: SPA competition vs [125I-A14Y]-human insulin, membrane hIR-B, 0.1% HSA
Sequence of membrane-associated human IR-B (plasma membranes of BHK cells stably transfected with the human IR-B insert) (human) (P06213 28-1382): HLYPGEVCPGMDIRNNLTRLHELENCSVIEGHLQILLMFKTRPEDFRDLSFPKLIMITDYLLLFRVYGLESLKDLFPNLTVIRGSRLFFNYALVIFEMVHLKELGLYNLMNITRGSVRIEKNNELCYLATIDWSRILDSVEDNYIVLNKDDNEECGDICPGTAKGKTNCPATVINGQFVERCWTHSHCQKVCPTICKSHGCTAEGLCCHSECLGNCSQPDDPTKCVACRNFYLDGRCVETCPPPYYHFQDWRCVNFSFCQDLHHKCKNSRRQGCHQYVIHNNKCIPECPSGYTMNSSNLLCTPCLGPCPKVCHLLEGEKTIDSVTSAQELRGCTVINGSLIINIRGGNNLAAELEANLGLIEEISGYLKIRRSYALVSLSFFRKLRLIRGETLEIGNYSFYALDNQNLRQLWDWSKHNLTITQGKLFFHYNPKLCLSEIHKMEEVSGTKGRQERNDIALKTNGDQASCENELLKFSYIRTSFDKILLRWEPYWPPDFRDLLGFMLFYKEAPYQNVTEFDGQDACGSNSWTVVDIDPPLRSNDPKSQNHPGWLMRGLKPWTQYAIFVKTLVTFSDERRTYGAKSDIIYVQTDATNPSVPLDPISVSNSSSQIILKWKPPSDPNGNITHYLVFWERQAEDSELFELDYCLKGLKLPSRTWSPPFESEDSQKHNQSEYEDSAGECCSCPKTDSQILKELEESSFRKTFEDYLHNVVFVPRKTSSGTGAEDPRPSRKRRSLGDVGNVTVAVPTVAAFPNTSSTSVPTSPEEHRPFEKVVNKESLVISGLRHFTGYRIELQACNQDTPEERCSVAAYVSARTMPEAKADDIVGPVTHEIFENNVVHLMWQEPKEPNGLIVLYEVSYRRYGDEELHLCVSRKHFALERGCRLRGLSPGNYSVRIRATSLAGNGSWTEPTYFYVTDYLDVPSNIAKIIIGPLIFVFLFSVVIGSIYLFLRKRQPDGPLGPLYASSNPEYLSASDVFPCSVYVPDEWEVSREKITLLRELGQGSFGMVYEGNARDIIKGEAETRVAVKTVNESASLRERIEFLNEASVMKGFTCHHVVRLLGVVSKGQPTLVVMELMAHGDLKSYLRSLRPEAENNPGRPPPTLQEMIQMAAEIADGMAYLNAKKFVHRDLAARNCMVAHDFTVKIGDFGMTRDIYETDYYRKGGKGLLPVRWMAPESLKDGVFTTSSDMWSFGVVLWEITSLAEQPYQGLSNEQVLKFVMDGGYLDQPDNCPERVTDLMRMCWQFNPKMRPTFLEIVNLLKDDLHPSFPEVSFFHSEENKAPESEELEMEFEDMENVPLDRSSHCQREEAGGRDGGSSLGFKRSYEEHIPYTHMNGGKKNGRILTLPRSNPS

Sequence of insulin receptor on primary rat adipocytes (rat) (P15127 27-1383): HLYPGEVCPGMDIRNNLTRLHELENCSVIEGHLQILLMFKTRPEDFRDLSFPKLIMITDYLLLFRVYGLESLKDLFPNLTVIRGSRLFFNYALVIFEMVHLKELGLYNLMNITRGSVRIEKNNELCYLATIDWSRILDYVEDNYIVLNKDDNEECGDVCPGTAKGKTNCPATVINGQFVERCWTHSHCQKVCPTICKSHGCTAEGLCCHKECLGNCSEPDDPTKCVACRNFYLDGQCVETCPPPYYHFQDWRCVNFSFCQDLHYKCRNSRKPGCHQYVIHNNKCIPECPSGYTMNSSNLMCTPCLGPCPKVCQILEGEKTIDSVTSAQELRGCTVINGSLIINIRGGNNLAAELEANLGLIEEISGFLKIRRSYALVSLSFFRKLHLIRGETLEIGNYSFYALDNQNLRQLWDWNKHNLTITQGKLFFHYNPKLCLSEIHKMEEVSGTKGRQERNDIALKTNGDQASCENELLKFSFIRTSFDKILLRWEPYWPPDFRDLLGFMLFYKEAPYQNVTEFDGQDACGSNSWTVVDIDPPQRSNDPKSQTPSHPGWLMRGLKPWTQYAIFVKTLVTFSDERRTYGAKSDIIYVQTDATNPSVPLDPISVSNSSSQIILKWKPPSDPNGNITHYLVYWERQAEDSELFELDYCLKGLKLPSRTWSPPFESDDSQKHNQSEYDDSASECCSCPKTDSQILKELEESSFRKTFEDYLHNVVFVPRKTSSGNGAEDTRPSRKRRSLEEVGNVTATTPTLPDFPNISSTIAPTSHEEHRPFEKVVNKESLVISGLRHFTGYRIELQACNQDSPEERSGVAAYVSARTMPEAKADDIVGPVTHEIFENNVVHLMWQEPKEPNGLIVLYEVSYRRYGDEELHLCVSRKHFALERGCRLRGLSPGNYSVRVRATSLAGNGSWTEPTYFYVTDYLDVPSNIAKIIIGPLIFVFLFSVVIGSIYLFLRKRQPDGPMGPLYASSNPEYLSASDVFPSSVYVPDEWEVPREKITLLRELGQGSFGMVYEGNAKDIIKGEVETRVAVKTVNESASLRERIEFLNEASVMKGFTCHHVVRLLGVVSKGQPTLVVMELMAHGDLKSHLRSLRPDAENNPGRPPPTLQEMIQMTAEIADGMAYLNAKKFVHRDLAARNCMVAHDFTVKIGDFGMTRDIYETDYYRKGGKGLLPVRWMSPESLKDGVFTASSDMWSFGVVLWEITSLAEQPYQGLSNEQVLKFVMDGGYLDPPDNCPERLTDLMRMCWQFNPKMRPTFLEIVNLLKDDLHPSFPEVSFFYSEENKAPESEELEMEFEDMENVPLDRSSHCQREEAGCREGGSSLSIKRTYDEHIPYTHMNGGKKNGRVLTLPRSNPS

## A22K(N(eps)tetradecanedioyl-4xgGlu), B3E, B26E, B28E, B29P, B30R human insulin (ligand)
[1]
  Lipogenesis 1% HSA (% rel to HI): 17.9 % rel to HI
[2]
  relative binding affinity (% rel to HI): 46.4 % rel to HI
[3]
  relative binding affinity (% rel to HI): 76.2 % rel to HI

## A22K(N(eps)hexadecanedioyl-4xgGlu), B3E, B27E, B28E, B29R, desB30 human insulin (ligand)
[1]
  Lipogenesis 1% HSA (% rel to HI): 4.4 % rel to HI
[2]
  relative binding affinity (% rel to HI): 29.1 % rel to HI
[3]
  relative binding affinity (% rel to HI): 35.7 % rel to HI

## A22K(N(eps)tetradecanedioyl-4xgGlu), B3E, B27E, B28E, B29R, desB30 human insulin (ligand)
[1]
  Lipogenesis 1% HSA (% rel to HI): 27.3 % rel to HI
[2]
  relative binding affinity (% rel to HI): 74.9 % rel to HI
[3]
  relative binding affinity (% rel to HI): 157 % rel to HI

## A22K(N(eps)tetradecanedioyl-4xgGlu), B3E, B26E, B27P, B28R, desB29, desB30 human insulin (ligand)
[1]
  Lipogenesis 1% HSA (% rel to HI): 78.8 % rel to HI
[2]
  relative binding affinity (% rel to HI): 63.2 % rel to HI
[3]
  relative binding affinity (% rel to HI): 90.7 % rel to HI

## A22K(N(eps)tetradecanedioyl-4xgGlu), B3E, B27E, B29R, desB30 human insulin (ligand)
[1]
  Lipogenesis 1% HSA (% rel to HI): 11.1 % rel to HI
[2]
  relative binding affinity (% rel to HI): 61.5 % rel to HI
[3]
  relative binding affinity (% rel to HI): 119 % rel to HI

## A22K(N(eps)tetradecanedioyl-gGlu-2xOEG), B3E, B27E, B28E, B29R, desB30 human insulin (ligand)
[1]
  Lipogenesis 1% HSA (% rel to HI): 23.9 % rel to HI
[2]
  relative binding affinity (% rel to HI): 103 % rel to HI
[3]
  relative binding affinity (% rel to HI): 159 % rel to HI

## A22K(N(eps)tetradecanedioyl-4xgGlu), B3E, B27E, B28R, desB29, desB30 human insulin (ligand)
[1]
  Lipogenesis 1% HSA (% rel to HI): 29.9 % rel to HI
[2]
  relative binding affinity (% rel to HI): 40.6 % rel to HI
[3]
  relative binding affinity (% rel to HI): 81.7 % rel to HI

## A22K(N(eps)hexadecanedioyl-4xgGlu), B3E, B27E, B29R, desB30 human insulin (ligand)
[1]
  Lipogenesis 1% HSA (% rel to HI): 1.1 % rel to HI
[2]
  relative binding affinity (% rel to HI): 25.7 % rel to HI
[3]
  relative binding affinity (% rel to HI): 55.3 % rel to HI

## A22K(N(eps)tetradecanedioyl-4xgGlu), B3E, B26E, B27E, B28E, B29R, desB30 human insulin (ligand)
[1]
  Lipogenesis 1% HSA (% rel to HI): 18.2 % rel to HI
[2]
  relative binding affinity (% rel to HI): 48.3 % rel to HI
[3]
  relative binding affinity (% rel to HI): 82.4 % rel to HI

## A22K(N(eps)Hexadecanedioyl-gGlu-2xOEG), B3E, B27E, B29R, desB30 human insulin (ligand)
[1]
  Lipogenesis 1% HSA (% rel to HI): 3.2 % rel to HI
[2]
  relative binding affinity (% rel to HI): 71.1 % rel to HI
[3]
  relative binding affinity (% rel to HI): 72.1 % rel to HI

## A22K(N(eps)tetradecanedioyl-gGlu-2xOEG), B3E, B27P, B28E, B29R, desB30 human insulin (ligand)
[1]
  Lipogenesis 1% HSA (% rel to HI): 20.3 % rel to HI
[2]
  relative binding affinity (% rel to HI): 75.6 % rel to HI
[3]
  relative binding affinity (% rel to HI): 75.9 % rel to HI

## A22K(N(eps)hexadecanedioyl-4xgGlu), B3E, B27P, B28E, B29R, desB30 human insulin (ligand)
[1]
  Lipogenesis 1% HSA (% rel to HI): 3.7 % rel to HI
[2]
  relative binding affinity (% rel to HI): 27.5 % rel to HI
[3]
  relative binding affinity (% rel to HI): 32.1 % rel to HI

## A22K(N(eps)tetradecanedioyl-4xgGlu), B3E, B28E, B29P, B30R human insulin (ligand)
[1]
  Lipogenesis 1% HSA (% rel to HI): 19.5 % rel to HI
[2]
  relative binding affinity (% rel to HI): 44.6 % rel to HI
[3]
  relative binding affinity (% rel to HI): 94.5 % rel to HI

## A22K(N(eps)tetradecanedioyl-4xgGlu), B3Q, B26E, B28E, B29R, desB30 human insulin (ligand)
[1]
  Lipogenesis 1% HSA (% rel to HI): 31.2 % rel to HI
[2]
  relative binding affinity (% rel to HI): 78.5 % rel to HI
[3]
  relative binding affinity (% rel to HI): 133 % rel to HI

## A22K(N(eps)hexadecanedioyl-gGlu-2xOEG), B3E, B28D, B29R, desB30 human insulin (ligand)
[1]
  Lipogenesis 1% HSA (% rel to HI): 2.6 % rel to HI
[2]
  relative binding affinity (% rel to HI): 32.1 % rel to HI
[3]
  relative binding affinity (% rel to HI): 40.7 % rel to HI

## A22K(N(eps)tetradecanedioyl-4xgGlu), B3E, B27E, B28E, B29P, B30R human insulin (ligand)
[1]
  Lipogenesis 1% HSA (% rel to HI): 23.7 % rel to HI
[2]
  relative binding affinity (% rel to HI): 45.1 % rel to HI
[3]
  relative binding affinity (% rel to HI): 70 % rel to HI

## A22K(N(eps)tetradecanedioyl-gGlu-2xOEG), B3E, B28D, B29R, desB30 human insulin (ligand)
[1]
  Lipogenesis 1% HSA (% rel to HI): 21.3 % rel to HI
[2]
  relative binding affinity (% rel to HI): 93.9 % rel to HI
[3]
  relative binding affinity (% rel to HI): 108 % rel to HI

## A22K(N(eps)hexadecanedioyl-4xgGlu), B3E, B28D, B29R, desB30 human insulin (ligand)
[1]
  Lipogenesis 1% HSA (% rel to HI): 3.8 % rel to HI
[2]
  relative binding affinity (% rel to HI): 20.9 % rel to HI
[3]
  relative binding affinity (% rel to HI): 47.8 % rel to HI

## A22K(N(eps)hexadecanedioyl-gGlu-2xOEG), B3E, B27P, B28E, B29R, desB30 human insulin (ligand)
[1]
  Lipogenesis 1% HSA (% rel to HI): 3.3 % rel to HI
[2]
  relative binding affinity (% rel to HI): 31.2 % rel to HI
[3]
  relative binding affinity (% rel to HI): 29.4 % rel to HI

## A22K(N(eps)tetradecanedioyl-4xgGlu), B3E, B26E, B28E, B29R, desB30 human insulin (ligand)
[1]
  Lipogenesis 1% HSA (% rel to HI): 20.5 % rel to HI
[2]
  relative binding affinity (% rel to HI): 68 % rel to HI
[3]
  relative binding affinity (% rel to HI): 111 % rel to HI

## A22K(N(eps)hexadecanedioyl-gGlu-2xOEG), B3E, B27E, B28E, B29R, desB30 human insulin (ligand)
[1]
  Lipogenesis 1% HSA (% rel to HI): 4.4 % rel to HI
[2]
  relative binding affinity (% rel to HI): 30.9 % rel to HI
[3]
  relative binding affinity (% rel to HI): 38.2 % rel to HI

## A22K(N(eps)tetradecanedioyl-4xgGlu), B3E, B27P, B28E, B29R, desB30 human insulin (ligand)
[1]
  Lipogenesis 1% HSA (% rel to HI): 27 % rel to HI
[2]
  relative binding affinity (% rel to HI): 64.3 % rel to HI
[3]
  relative binding affinity (% rel to HI): 77.6 % rel to HI

## A22K(N(eps)hexadecanedioyl-4xgGlu), B3E, B26E, B29R, desB30 human insulin (ligand)
[2]
  relative binding affinity (% rel to HI): 29.1 % rel to HI
[3]
  relative binding affinity (% rel to HI): 46.8 % rel to HI

## A22K(N(eps)tetradecanedioyl-4xgGlu), B3Q, B26E, B29R, desB30 human insulin (ligand)
[1]
  Lipogenesis 1% HSA (% rel to HI): 31.4 % rel to HI
[2]
  relative binding affinity (% rel to HI): 76.5 % rel to HI
[3]
  relative binding affinity (% rel to HI): 163 % rel to HI

## A22K(N(eps)tetradecanedioyl-4xgGlu), B3E, B26E, B27E, B28R, desB29, desB30 human insulin (ligand)
[1]
  Lipogenesis 1% HSA (% rel to HI): 29.6 % rel to HI
[2]
  relative binding affinity (% rel to HI): 57.2 % rel to HI
[3]
  relative binding affinity (% rel to HI): 93.3 % rel to HI

## A22K(N(eps)tetradecanedioyl-4xgGlu), B3E, B28D, B29R, desB30 human insulin (ligand)
[1]
  Lipogenesis 1% HSA (% rel to HI): 26.4 % rel to HI
[2]
  relative binding affinity (% rel to HI): 64.9 % rel to HI
[3]
  relative binding affinity (% rel to HI): 93.7 % rel to HI

## A22K(N(eps)tetradecanedioyl-4xgGlu), B3E, B26E, B29R, desB30 human insulin (ligand)
[1]
  Lipogenesis 1% HSA (% rel to HI): 31.3 % rel to HI
[2]
  relative binding affinity (% rel to HI): 66.9 % rel to HI
[3]
  relative binding affinity (% rel to HI): 105 % rel to HI

## A22K(N(eps)hexadecanedioyl-gGlu-2xOEG), B3E, B26E, B29R, desB30 human insulin (ligand)
[2]
  relative binding affinity (% rel to HI): 34.4 % rel to HI
[3]
  relative binding affinity (% rel to HI): 40.2 % rel to HI
